± gives the uncertainty stated by the source.
B1: Receptor-interacting serine/threonine-protein kinase 2, residues 438 to 518; numbered along this chain, O43353 (parent)
chain: QWIQSKREDIVNQMTEACLNQSLDALLSRDLIMKEDYELVSTKPTRTSKVRQLLDTTDIQGEEFAKVIVQKLKDNKQMGLQ

Variants of: B1
Test: abundance fitness (aPCA) (normalised: wild type 0, dead -1); higher = more abundant; growth selection in yeast, the domain comes from the species named
Conditions: Homo sapiens

| Variant | abundance fitness |
| --- | --- |
| D30L | -0.615 ± 0.081 |
| K34T | -0.515 ± 0.22 |
| K34D | -0.448 ± 0.24 |
| L31S | -0.608 ± 0.048 |
| L31P | -0.588 ± 0.063 |
| L31I | -0.973 ± 0.45 |
| L31H | -0.448 ± 0.39 |
| L31N | -0.782 ± 0.35 |
| L31R | -0.732 ± 0.087 |
| V50N | -0.737 ± 0.2 |
| V50Y | -0.761 ± 0.35 |
| V50I | -0.524 ± 0.16 |
| V50P | -0.53 ± 0.066 |
| V50L | -0.817 ± 0.088 |
| V50R | -0.802 ± 0.079 |
| V50H | -0.696 ± 0.21 |
| L54G | -0.519 ± 0.045 |
| L54Q | -0.646 ± 0.12 |
| L39C | -0.379 ± 0.1 |
| L39A | 0.092 ± 0.08 |
| L39I | -0.352 ± 0.11 |
| L39F | -0.436 ± 0.09 |
| L39R | 0.015 ± 0.047 |
| L39V | -0.199 ± 0.079 |

| Variant | abundance fitness |
| --- | --- |
| L39W | -0.815 ± 0.13 |
| L23S | -0.616 ± 0.12 |
| L23T | -0.368 ± 0.12 |
| L23A | -0.397 ± 0.11 |
| L23F | -0.764 ± 0.24 |
| L23I | -0.918 ± 0.49 |
| T56V | 0.108 ± 0.056 |
| T56C | -0.105 ± 0.13 |
| T56A | -0.161 ± 0.06 |
| T56E | -0.332 ± 0.16 |
| T56Y | 0.046 ± 0.083 |
| K76H | -0.069 ± 0.15 |
| K76C | 0.003 ± 0.14 |
| K76F | -0.207 ± 0.14 |
| K76W | -0.36 ± 0.11 |
| R7P | -0.956 ± 0.14 |
| R7L | -0.545 ± 0.085 |
| R7W | -0.673 ± 0.12 |
| R7E | -0.42 ± 0.13 |
| R7V | -0.611 ± 0.085 |
| R7K | 0.032 ± 0.14 |
| G61K | 0.024 ± 0.19 |
| G61M | -0.947 ± 0.45 |
| G61A | -0.378 ± 0.1 |

| Variant | abundance fitness |
| --- | --- |
| G61L | -0.531 ± 0.089 |
| G61T | -0.085 ± 0.13 |
| S48L | -0.04 ± 0.075 |
| S48C | -0.293 ± 0.1 |
| S48M | -0.142 ± 0.16 |
| S48W | -0.819 ± 0.13 |
| R51I | -0.235 ± 0.079 |
| R51A | -0.145 ± 0.055 |
| R51Q | -0.052 ± 0.17 |
| R51S | -0.194 ± 0.047 |
| R51C | -0.307 ± 0.066 |
| M33S | 0.195 ± 0.073 |
| M33K | -0.088 ± 0.17 |
| M33F | -0.555 ± 0.15 |
| M33Q | 0.145 ± 0.11 |
| F64G | -0.257 ± 0.054 |
| T57Q | 0.01 ± 0.089 |
| T57H | -0.268 ± 0.091 |
| T57P | -0.04 ± 0.05 |
| T15H | -1.13 ± 0.35 |
| T15R | -0.937 ± 0.11 |
| T15V | -0.777 ± 0.11 |
| T15D | -0.152 ± 0.11 |
| T15L | -0.75 ± 0.12 |

| Variant | abundance fitness |
| --- | --- |
| T15I | -1.12 ± 0.34 |
| T15S | 0.158 ± 0.042 |
| I68Q | -0.554 ± 0.12 |
| I68G | -0.497 ± 0.086 |
| I68V | -0.147 ± 0.091 |
| I68E | -0.152 ± 0.18 |
| E8G | -0.29 ± 0.057 |
| E8L | -0.507 ± 0.079 |
| E8W | -0.918 ± 0.12 |
| E8A | -0.367 ± 0.076 |
| Q21T | -0.344 ± 0.08 |
| Q21S | -0.141 ± 0.062 |
| Q21C | -0.475 ± 0.12 |
| Q21F | -0.776 ± 0.28 |
| Q21K | -0.338 ± 0.18 |
| Q21N | -0.357 ± 0.2 |
| Q21P | -0.793 ± 0.1 |
| Q21W | -1.07 ± 0.2 |
| N20R | -0.106 ± 0.098 |
| N20K | 0.117 ± 0.22 |
| N20W | 0.075 ± 0.11 |
| N20P | -0.829 ± 0.24 |
| N20Y | 0.112 ± 0.2 |
| D24R | -0.169 ± 0.057 |

| Variant | abundance fitness |
| --- | --- |
| D24F | -0.779 ± 0.22 |
| D24L | -0.569 ± 0.11 |
| D24A | -0.106 ± 0.084 |
| D24G | -0.692 ± 0.1 |
| D24W | -0.881 ± 0.21 |
| D24S | -0.19 ± 0.077 |
| R46L | 0.143 ± 0.037 |
| R46D | -0.221 ± 0.088 |
| R46H | -0.012 ± 0.11 |
| R46G | -0.596 ± 0.054 |
| R46V | -0.045 ± 0.034 |
| R46F | -0.447 ± 0.14 |
| V69N | -0.94 ± 0.35 |
| V69D | -0.27 ± 0.2 |
| E16K | -0.537 ± 0.14 |
| D74R | -0.49 ± 0.051 |
| D74Q | -0.248 ± 0.11 |
| D74G | -0.336 ± 0.058 |
| D74Y | -0.173 ± 0.26 |
| D74W | -0.488 ± 0.1 |
| E63H | -0.734 ± 0.18 |
| E63T | -0.362 ± 0.083 |
| E63C | -0.527 ± 0.12 |
| E63K | -0.441 ± 0.18 |

| Variant | abundance fitness |
| --- | --- |
| S22V | 0.1 ± 0.069 |
| S22Y | -0.911 ± 0.25 |
| S22N | -0.71 ± 0.46 |
| S22P | -0.621 ± 0.059 |
| Q52H | -0.493 ± 0.15 |
| V67M | -0.674 ± 0.1 |
| V67F | -0.945 ± 0.24 |
| V67A | -0.674 ± 0.077 |
| V67P | -0.562 ± 0.08 |
| T45V | -0.56 ± 0.083 |
| T45Y | -1.11 ± 0.47 |
| T45K | -0.999 ± 0.24 |
| T45W | -0.571 ± 0.1 |
| T45C | -0.308 ± 0.11 |
| N75W | -0.244 ± 0.083 |
| N75Q | -0.046 ± 0.1 |
| N75D | -0.053 ± 0.1 |
| N75M | -0.162 ± 0.12 |
| N75L | -0.135 ± 0.054 |
| N75R | -0.62 ± 0.045 |
| E62Q | -0.943 ± 0.15 |
| E62P | -0.493 ± 0.049 |
| E62F | -0.741 ± 0.25 |
| G79S | -0.021 ± 0.18 |

| Variant | abundance fitness |
| --- | --- |
| Y37Q | -0.547 ± 0.11 |
| Y37I | -0.401 ± 0.27 |
| Y37C | -0.547 ± 0.21 |
| Q4F | -0.166 ± 0.15 |
| Q4I | 0.135 ± 0.39 |
| Q4S | 0.09 ± 0.15 |
| Q4G | -0.685 ± 0.13 |
| E38L | -0.075 ± 0.076 |
| E38M | -0.088 ± 0.25 |
| E38V | -0.226 ± 0.1 |
| E38S | -0.375 ± 0.07 |
| E38F | -0.221 ± 0.11 |
| I32V | -0.373 ± 0.085 |
| I32E | -0.731 ± 0.2 |
| I32H | -0.527 ± 0.13 |
| I32K | -0.94 ± 0.42 |
| I32M | -0.183 ± 0.11 |
| I32G | -0.707 ± 0.094 |
| I32W | -0.442 ± 0.14 |
| S28T | -0.165 ± 0.12 |
| S28V | -0.175 ± 0.089 |
| S28G | -0.363 ± 0.064 |
| S28R | -0.082 ± 0.062 |
